Measurements from article PMC4022514, “The C-Terminal Domain from S. cerevisiae Pat1 Displays Two Conserved Regions Involved in Decapping Factor Recruitment” (PLoS ONE, 2014).

What was measured:
[1] = target: T1, Edc3 (two-hybrid fusion to the DNA binding domain) (S. cerevisiae, UniProt P39998 1-551); test: two-hybrid; yeast strain BSY2475, isogenic to MAV203 but lacking Edc3 (Δedc3); β-galactosidase activity by Beta-Glo; Pat1 fused to Gal4AD; settings: partners not purified
T1 construct: Edc3, S. cerevisiae; The bridge between Pat1 and Rps28 in the wild-type host strain is the strain's endogenous Edc3, the same protein without the fusion; source: yeast two-hybrid fusion
T1 sequence (looked up): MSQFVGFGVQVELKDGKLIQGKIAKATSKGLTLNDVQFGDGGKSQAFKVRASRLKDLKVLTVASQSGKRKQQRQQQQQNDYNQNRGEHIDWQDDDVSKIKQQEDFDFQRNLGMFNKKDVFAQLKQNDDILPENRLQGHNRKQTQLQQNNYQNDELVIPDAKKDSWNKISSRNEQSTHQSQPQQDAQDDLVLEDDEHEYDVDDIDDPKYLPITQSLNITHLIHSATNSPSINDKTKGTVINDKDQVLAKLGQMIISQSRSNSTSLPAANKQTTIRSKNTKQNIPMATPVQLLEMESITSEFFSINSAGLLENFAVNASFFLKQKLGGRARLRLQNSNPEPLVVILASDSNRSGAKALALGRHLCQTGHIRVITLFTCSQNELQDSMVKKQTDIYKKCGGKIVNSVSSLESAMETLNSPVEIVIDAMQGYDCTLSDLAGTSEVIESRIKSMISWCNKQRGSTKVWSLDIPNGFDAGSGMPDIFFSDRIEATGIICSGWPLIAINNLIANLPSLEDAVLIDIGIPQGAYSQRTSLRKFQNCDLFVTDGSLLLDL

Scd6 (two-hybrid fusion) = target: T2, Scd6 (two-hybrid fusion) (S. cerevisiae, UniProt P45978 1-349); test: as above; settings: partners not purified
T2 construct: Scd6, S. cerevisiae; source: yeast two-hybrid fusion
T2 sequence (looked up): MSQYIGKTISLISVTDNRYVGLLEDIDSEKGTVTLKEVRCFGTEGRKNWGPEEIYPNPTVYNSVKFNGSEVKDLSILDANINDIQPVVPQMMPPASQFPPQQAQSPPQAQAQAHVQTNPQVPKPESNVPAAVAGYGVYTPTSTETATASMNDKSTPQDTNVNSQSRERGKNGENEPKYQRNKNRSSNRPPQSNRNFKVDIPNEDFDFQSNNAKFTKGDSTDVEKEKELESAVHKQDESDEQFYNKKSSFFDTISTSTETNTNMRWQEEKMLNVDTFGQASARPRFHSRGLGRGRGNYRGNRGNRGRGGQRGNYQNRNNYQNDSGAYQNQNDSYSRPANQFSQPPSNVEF

- fold two-hybrid signal, Δedc3 strain over wild type strain [1]: > 60 fold
- fold two-hybrid signal, Δedc3 strain over wild type strain (Scd6 (two-hybrid fusion)): 3 fold
B1: full-length ScPat1 (two-hybrid fusion to Gal4AD) (natural protein, S. cerevisiae, UniProt P25644 1-796, looked up)
chain: MSFFGLENSGNARDGPLDFEESYKGYGEHELEENDYLNDETFGDNVQVGTDFDFGNPHSSGSSGNAIGGNGVGATARSYVAATAEGISGPRTDGTAAAGPLDLKPMESLWSTAPPPAMAPSPQSTMAPAPAPQQMAPLQPILSMQDLERQQRQMQQQFMNFHAMGHPQGLPQGPPQQQFPMQPASGQPGPSQFAPPPPPPGVNVNMNQMPMGPVQVPVQASPSPIGMSNTPSPGPVVGATKMPLQSGRRSKRDLSPEEQRRLQIRHAKVEKILKYSGLMTPRDKDFITRYQLSQIVTEDPYNEDFYFQVYKIIQRGGITSESNKGLIARAYLEHSGHRLGGRYKRTDIALQRMQSQVEKAVTVAKERPSKLKDQQAAAGNSSQDNKQANTVLGKISSTLNSKNPRRQLQIPRQQPSDPDALKDVTDSLTNVDLASSGSSSTGSSAAAVASKQRRRSSYAFNNGNGATNLNKSGGKKFILELIETVYEEILDLEANLRNGQQTDSTAMWEALHIDDSSYDVNPFISMLSFDKGIKIMPRIFNFLDKQQKLKILQKIFNELSHLQIIILSSYKTTPKPTLTQLKKVDLFQMIILKIIVSFLSNNSNFIEIMGLLLQLIRNNNVSFLTTSKIGLNLITILISRAALIKQDSSRSNILSSPEISTWNEIYDKLFTSLESKIQLIFPPREYNDHIMRLQNDKFMDEAYIWQFLASLALSGKLNHQRIIIDEVRDEIFATINEAETLQKKEKELSVLPQRSQELDTELKSIIYNKEKLYQDLNLFLNVMGLVYRDGEISELK
notes: Pat1, S. cerevisiae, full-length; pBS2374 is named only as the template for the Gal4AD-Pat1ΔC68 plasmid pBS4907; also called wild type ScPat1; full-length Pat1 protein; source: yeast two-hybrid fusion
